Among the data in patent publication US20180142000A1 are Kd, koff and kon values, retold here.

Where “and” joins values, the source holds several entries; their conditions need not be identical. Identical values can stand only once. Like-named read-outs stand apart in the source and are kept apart here.

For test [1], the target named is C. jejuni (strain 81-176) flagella (Campylobacter jejuni strain 81-176).
Test [2] has the same target. As to the kind of experiment: SPR (Biacore 3000), single-cycle kinetics, […]. For orientation: SPR reads the build-up and loss of mass on a sensor chip optically.
Test [3] has the same target. As to the kind of experiment: ELISA on coated flagella, approximate affinity. On the technique in general: In an ELISA, binding on a coated surface is turned into a signal by an enzyme label.

B1: FlagV6M (VHH)
VHH: QVKLEESGGGLVQAGGSLRVSCTASVSTFSINALGWYRQAPGKARELVAAIGSDGTVYYTDSVKGRFTISRDNAKNTVSLQMSSLKPEDTAVYYCNAAGKRIGSDGSIWFAVASFGSWGQGTQVTVSS
In test [1], B1 displayed a Kd of 25 nM, a koff of 0.03 s⁻¹ and a kon of 1e+06 M⁻¹ s⁻¹.

B2: FlagV1M (VHH)
VHH: QVKLEESGGGLVQAGGSRRLSCATSGLTFRNFHMAWFRQVAGKEREVVAAISWSRDRQYYPDPVKGRFTITRDNAKNTVYLQMNSLKPEDTAVYYCAARTASASGDWYKGSYQYWGQGTQVTVSS
In the case of B2, in test [2], the Kd is 23.9 nM, the koff worked out at 0.00563 s⁻¹ and the kon turned out to be 236000 M⁻¹ s⁻¹. Moreover, the Kd in test [3] is 20 nM and 30 nM.

B3: FlagV1F23M (VHH)
VHH: QVQLVESGGGLVQAGGSRRLSCATSGLTFRNFHMAWFRQVAGKEREVVAAISWSRDRQYYPDPVKGRFTITRDNAKNTVYLQMNSLKPEDTAVYYCAARTASASGDWYKGSYQYWGQGTQVTVSS
In test [2], B3 gave a Kd of 18.6 nM, a koff of 0.00426 s⁻¹ and a kon of 229000 M⁻¹ s⁻¹.

B4: FlagV1MDSB (VHH)
VHH: QVKLEESGGGLVQAGGSRRLSCATSGLTFRNFHMAWFRQVAGKEREVVCAISWSRDRQYYPDPVKGRFTCTRDNAKNTVYLQMNSLKPEDTAVYYCAARTASASGDWYKGSYQYWGQGTQVTVSS
As for B4, in test [2], the Kd is 18.2 nM, the koff was found to be 0.0028 s⁻¹ and the kon was determined as 153000 M⁻¹ s⁻¹.

B5: FlagV1F23MDSB (VHH)
VHH: QVQLVESGGGLVQAGGSRRLSCATSGLTFRNFHMAWFRQVAGKEREVVCAISWSRDRQYYPDPVKGRFTCTRDNAKNTVYLQMNSLKPEDTAVYYCAARTASASGDWYKGSYQYWGQGTQVTVSS
Take B5: in test [2], the Kd is 17.3 nM, the koff was 0.00286 s⁻¹ and the kon came to 165000 M⁻¹ s⁻¹.

One may read the Kd as the free concentration of one partner at which half of the binding sites on the other are occupied at equilibrium, for simple one-to-one binding. Low values mean tighter binding, high ones weaker binding. The koff is the rate constant with which the complex falls apart. Low readings indicate slow dissociation, high ones fast dissociation. What is called kon is a measure of how fast the partners come together. Low values mean slower complex formation, high ones faster complex formation.
